Experimental data from paper PMC5593958, “Dissecting the link between the enzymatic activity and the SaPI inducing capacity of the phage 80α dUTPase” (Scientific Reports, 2017).

Columns and labels:
[1] = biological target: T1, Dut80α (Dubowvirus dv80alpha, UniProt A4ZF98); test: thermal shift (Sypro Orange); type: binding; conditions: 1 mM dUPNPP, 5 mM MgCl2, 10 μM protein, 75 mM HEPES pH 7.5, 250 mM NaCl; absolute Tm, not a shift; decimal comma as printed
T1 construct: pET28a, His-tagged, E. coli BL21 (DE3), HisTrap and size exclusion; homotrimer; last residues cited about 170
Excerpt: thermal shift (Sypro Orange) on Dut80α

[2] = test system: O=c1ccn([C@H]2C[C@H](O)[C@@H](COP(=O)(O)OP(=O)(O)OP(=O)(O)O)O2)c(=O)[nH]1; test: malachite green phosphate assay; type: biochemical, Dubowvirus dv80alpha; conditions: pH 7.5
Excerpt: malachite green phosphate assay on Dut80α

[3] = biological target: phage 80α dUTPase D95E mutant (Dut80α D95E) (Staphylococcus aureus phage 80α); test: BLI
[4] = biological target: phage 80α dUTPase D95E mutant (Dut80α D95E) (Staphylococcus aureus phage 80α); test: crystal structure

Question: Which “Thermal Unfolding (°C) / +dUPNPP” value [1] does the source give for `O=c1ccn([C@H]2C[C@H](O)[C@@H](COP(=O)(O)NP(=O)(O)OP(=O)(O)O)O2)c(=O)[nH]1` [dUPNPP, 2′-Deoxyuridine-5′-[(α,β)-imido]triphosphate] here?
Answer: 58 ± 0,09

Question: With (Dubowvirus dv80alpha) as the compound, how does the Km [2] read?
Answer: 7.5 µM

Question: With “Stl repressor from SaPIbov1 (natural protein)” as the compound, how does the Kd [3] read?
Answer: > 1000 µM

Question: With “phage 80α dUTPase D95E mutant (Dut80α D95E) (enzyme)” as the compound, how does the stoichiometry N [4] read?
Answer: 3
